The target of assay [1] is His6-tagged full-length TF (E. coli) (UniProt P0A850). Nature of the assay: SEC-MALS; preliminary data on His6-tagged full-length TF; elution concentration 10 µM; conservative estimate of KD.
Assay [2] deals with RBD–SBD (1–148/247–432) (E. coli) (UniProt P0A850). Nature of the assay: SEC-MALS; as a2 but 250 mM KCl; dimer to monomers.
For assay [3] the target is unchanged. Nature of the assay: SEC-MALS; as a2 but 500 mM KCl; dimer to monomers.
Assay [4] has the same target. Nature of the assay: SEC-MALS; sample buffer (20 mM K-phosphate pH 6.5, 100 mM KCl, 0.5 mM EDTA); 6 °C for the individual domains; concentration series fitted to a fast monomer–dimer equilibrium; dimer to monomers. For orientation: In gel filtration, larger molecules generally elute earlier.
Assay [5] has the same target. Nature of the assay: AUC; sedimentation equilibrium, 6 °C, 100 mM KCl (sample buffer: 20 mM K-phosphate pH 6.5, 100 mM KCl, 0.5 mM EDTA); 12 μM TF, 48 and 135 μM RBD–SBD; global fit to a monomer–dimer model; dimer to monomers.

As to “His6-tagged full-length TF (from UniProt P0A850 1-432) (natural protein)”, in assay [1], the Kd was less than 0.1 µM and the stoichiometry N was 2.

“RBD–SBD (1–148/247–432) (from UniProt P0A850 1-148; P0A850 247-432) (domain or fragment)”: the equilibrium dissociation constant (Kd) was greater than 500 µM in assay [2], greater than 500 µM in assay [3], 72 µM in assay [4] and 54 µM in assay [5]. Besides, the stoichiometry N in assay [4] stood at 2.

The Kd is the concentration at which binding is half-saturated. As a reminder, the stoichiometry N is a count of units in the complex or per binding partner.
